In US20100136663:

Target: T1, ZFP-CRP Del 180 (CRP 1-180 fused to human zinc fingers ZFP1/ZFP2) (Escherichia coli / Homo sapiens) (UniProt P0ACJ8)
T1 sequence: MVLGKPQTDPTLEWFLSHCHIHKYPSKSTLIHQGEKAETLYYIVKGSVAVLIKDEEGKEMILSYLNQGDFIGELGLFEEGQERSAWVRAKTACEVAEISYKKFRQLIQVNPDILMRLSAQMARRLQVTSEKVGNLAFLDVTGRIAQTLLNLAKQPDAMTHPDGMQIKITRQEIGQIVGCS
Assay: cell_activity

| Sequence | activity (fold repression) (E. coli EGFP reporter with 1 mM IPTG, assignment of SEQ 8 to pEGFP-R inferred) | activity (fold activation) (E. coli EGFP reporter without IPTG, 2-fold with 1 mM IPTG, assignment of SEQ 7 to pEGFP-A inferred) |
| --- | --- | --- |
| ATCGATAAGCTTACTCCCCATCCCCCTGTTGACAATTAATCATCGGCTCGTATAATGTGTGGAATTGTGAGCGGATAACAATTTCGCGGCGGGGGCGGCGGGGACACAGGAAACAGGATCAAATTATGCCTGTCGAC (double strand) | 1.5 |  |
| ATCGATAAGCTTGCGGCGGGGGCGGCGGGGACTCCCCATCCCCCTGTTGACAATTAATCATCGGCTCGTATAATGTGTGGAATTGTGAGCGGATAACAATTTCACACAGGAAACAGGATCAAATTATGCCTGTCGAC (double strand) |  | 3 |
